Reference: US20230266303A1, “SYSTEM” (GTINVENT LIMITED, priority 2020, published 2023)

Key:
[1] = test system: dSH-SY5Y cells; test: Internalisation of dGAE-488 into cells by confocal microscopy; format: cell-based, human; conditions: soluble form, 5 μM dGAE-488, live confocal imaging t=0 h to 14 h
Description: (§1) Undifferentiated SH-SY5Y human neuroblastoma cells were grown in Dulbecco's Modified Eagle Medium/Nutrient Mixture F-12 (DMEM/F-12) supplemented with 10% Foetal Calf Serum (FCS), 1% Penicillin/Streptomycin (P/S) and 1% L-glutamine. For differentiation, SH-SY5Y cells were plated at a density of 50,000 cells per well in 24-well plates or 300,000 cells per well in 6-well plates. For immunofluorescence, cells were plated onto Menzel-Gläser coverslips (Thermo Scientific). For live-cell imaging, cells were plated on 35-mm dishes on a 1.5-mm coverslip (Mattek). On the first day of differentiation, media was replaced with low-serum culture media (DMEM/F-12 containing 1% FCS, 1% P/S and 1% L-glutamine) containing 10 μM all-trans retinoic acid (RA) (Sigma-Aldrich) and cells were incubated for 48 h. On day 3, this process was repeated with fresh RA and cells were incubated for a further 48 h. On day 5, the cells were washed once in serum-free culture media to remove traces of serum. […] Differentiated cells (dSH-SY5Y) were ready to use for experiments on day 7. […]
FIJI (https://fiji.sc) imaging processing package (J. Schindelin et al., Nat. Methods, vol. 9, no. 7, pp. 676-682, (2012)) was used for all image analysis. For quantification of fluorescence intensities, images were Z-projected to maximal intensity. […] Area-integrated intensity and mean grey value were measured as well as three selections from around the cell with no fluorescence (background). The corrected total cell fluorescence (CTCF) was then calculated using the equation: […]
For quantification of internalised dGAE-488, a focal plane from the middle of the cell that contained maximal DAPI fluorescence was selected and subjected to analysis.
The uptake of soluble and aggregated dGAE into dSH-SY5Y cells was investigated in order to examine whether aggregation state affects the efficiency of internalisation. The labelled dGAE-488 form was used to permit uptake to be visualised and measured having corrected for total cell fluorescence. […]

[2] = test system: dSH-SY5Y cells; test: ReadyProbes cell viability assay (cell death) after exposure to dGAE; format: cell-based; conditions: 24 h incubation; for percentage cell death: 1 μM, buffer only 21.6±1.6%
Description: as §1
Following the addition of dGAE, cell viability was measured using ReadyProbes® Cell Viability Imaging Kit (Life Technologies). […] DAPI fluorescence was captured using a G 365 excitation filter and a LP 420 emission filter with a FT 395 dichroic. Green fluorescence was captured using a FITC filter set (BP 450-490 excitation filter, BP 515-565 emission filter and FT 510 dichroic). Identical acquisition settings were used for all replicates and images were analysed using FIJI. Six fields of view were taken per sample and an average of 4500 cells were analysed per condition. The proportion of buffer-treated cell death was quantified by converting the images to grayscale followed by manually adjusting the threshold and converting it into a binary image to highlight live DAPI-stained cells. The number of cells was automatically counted. The dead cells were counted in the same way and cell death was expressed as a percentage of buffer-treated cells. […]

dGAE: recombinant truncated tau, 95 residues fragment of Tau (2N4R), Ile-297 to Glu-391, SEQ ID NO: 4
incubation time at which internalised protein is detected in cells [1]: ≤ 2 h | percentage cell death ([2]; aggregated dGAE (100 μM agitated 72 h)): 34±2.9% | percentage cell death ([2]; soluble dGAE (0 h, no agitation)): 24.1±1.2% | cell death on increasing concentration ([2]; soluble dGAE up to 20 μM): no further increase in cell death
